First the molecules themselves.
B1: Copia^Gag capsid protein (wild type), auto-processed from His6-SUMO-Copia^Gag+PR (natural protein)
chain: not shown
notes: Copia retrotransposon Gag (capsid CA, residues 1-186, and nucleocapsid NC, residues 186-270), Drosophila; product of auto-processing of the short spliced form Copia^Gag+PR, whose protease part is cut off in E. coli; Limits 1-270 put together from the stated CA (1-186) and NC (186-270) domains; the cleavage site between Gag and PR is not otherwise stated; Carries co-purified RNA unless this is …

Series [1] concerns the molecule itself. The series can be described thus: negative-stain EM; purified Copia^Gag after removal of His6-SUMO, with co-purified RNA, 0.8 mg/ml, 1% uranyl acetate; capsid-like particles of 30 nm to more than 120 nm.
Series [2] concerns the target B1. Briefly: SEC; Superose 6 Increase 10/300 GL after overnight Ulp1 digestion; 25 mM HEPES pH 7.4, 150 mM NaCl, 10% glycerol, 100 uM ZnCl2, 500 mM imidazole, 2 mM 2-mercaptoethanol; assembled capsids elute at fraction 7, unassembled protein at fractions 24 to 26. The note with it: both partners purified. A general note: Size exclusion chromatography separates by hydrodynamic size, large species first.

For B1, the binding result in series [1] is reported as “binds”.

B2: Copia^GagΔNC (domain or fragment)
chain: not shown
notes: Copia retrotransposon Gag, Drosophila, capsid (CA) region only; residue H186 mutated to a stop codon in the pSMT3_His6-SUMO-Copia^Gag+PR plasmid, so the chain ends at residue 185 and lacks the NC (Zn-finger) domain; also called Copia^gag-ΔNC variant; not shown: His6-SUMO, N-terminal, cleaved
With B2, the binding result in series [2] was “binds”.

The record behind these values is PMC11835246, “Capsid transfer of the retrotransposon Copia controls structural synaptic plasticity in Drosophila” (PLOS Biology, 2025).
